Laboratory results as given in PMC11542851 (PLOS Pathogens, 2024).
Read-outs that look alike come from different tables or passages of the source.

B1: C68.201 (antibody, V domains shown)
VH: EVQLVQSGAEVKKPGESLKISCTGSGYSFAYYWIGWVRQMPGKGLEWMGNIYPGDSDTRYSPSFQGQITISSDKSISTAYLQWSSLKASDTAMYYCATRYSGTHYVGIDAFEIWGQGTMVTVSS
VL: not shown
B2: C68.88 (antibody, V domains shown)
VH: QVQLQESGPGLVKPSETLSLTCSVSGGPISSSRYYWGWIRQSPGEGLEWIGTIYYSGSTYYNPSFKSRVTISVDTSKNQFSLKLSSVTAADTAVYYCATRCYDFWSGYYNREMLWFDCWGQGTLVTVSS
VL: NFMLTQPHSVSESPGKTVTISCTRSSGSIASNYVQWYQQRPGSSPTTVIYENNQTPSGVPDRFSGSIDSSSNSASLTISGLKTEDEADYYCQSYDSSVVVFGGGTKLTVL
B3: C68.61 (antibody, V domains shown)
VH: EVQLVQSGAEVKKPGESLKISCKGSAYIFTRYWIGWVRQMPGKGLEWMGIIYPGDSDTRYSPSFQGQVTISADKSISTAYLQWSSLKASDTAMYYCARSGTTNYFDYWGQGTLVTVSS
VL: DIQLTQSPSTLSASVGDRVTITCRASQSISSWLAWYQQKPGKAPKLLIYDASSLDSGVPSRFSGSGSGTDFTLTISSLQPDDFATYYCQQFNSYWTFGQGTKVEIK
B4: C68.183 (antibody, V domains shown)
VH: EVQLLESGGGLVQPGGSLRLSCVASGFTFRNFAMSWVRQAPGKGLEWVSAISGSGDSTYYADSVKGRFTISRDNSKNTLYLQVNSLRVEDTAIYYCAKGSRGSTDYFDSWGQGTLVTVSS
VL: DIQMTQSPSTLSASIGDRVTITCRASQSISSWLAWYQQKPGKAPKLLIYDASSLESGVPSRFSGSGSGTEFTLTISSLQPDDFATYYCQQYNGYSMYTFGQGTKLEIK
B5: C68.239 (antibody, V domains shown)
VH: EVQLLESGGGLVQPGGSLRLSCAASGFTFSSYAMSWVRQAPGKGLEWVSAISGGGDNTYYADSVKGRFTISRDNSKNTLYLQMNSLRAEDTAVYFCAKNPITVVPAAWDRGYFDLWGRGTLVTVSS
VL: SYELTQPPSVSVAPRKTARITCGGNNIGSYSVHWYQQRPGQAPVLVVHDDSDRPSGIPERFSGSNSGNTATLTISRVEAGDEADYYCQVWDSSSDHRGVFGGGTKLTVL
B6: C68.185 (antibody, V domains shown)
VH: QVQLVQSGAEVKKPGASVKVSCKTSGYAFTDHYVHWVRQAPGQGLEWMGVINPSGVGTSYAQMFQDRVTLTSDTSTSTVYMVLSSLRSEDTAVYYCVRDDYGVPARGWFDPWGQGTLVTVSS
VL: EVVLTQSPATLSLSPGERATLSCRASQSISSYLAWYQQKPGQAPRLLIYDASNRATGVPARFSGSGSGADFTLTISSLEAEDFALYYCQHRSNWLYTFGQGTKLEIK
B7: C68.200 (antibody, V domains shown)
VH: EVQLLESGGGLVQPGGSLRLSCTASGFTFSRYALTWVRQAPGKGLEWVSAISGSGGNTNYADSVKGRFTISRDNSKNTLYLQMNSLRAEDTAVYYCAKSPRYNNDYFDFWGQGTLVTVSS
VL: DIQLTQSPSTLSASVGDRVTITCRASQSISSWLAWYQQKPGKAPKLLIYDASSLESGVPSRFSGSGSGTEFTLTISSLQPDDFATYYCQQYNTFITFGHGTRLEIK
B8: C68.203 (antibody, V domains shown)
VH: EVQLLESGGGLVQPGGSLRLSCTASGFTFSRYALTWVRQAPGKGLECVSAFSGSGDSTYYADSVKGRFTISRDNSKNTLYLQMNSLRAEDTAVYYCAKSPRYNSDYFDFWGQGTLVTVSS
VL: DIQLTQSPSTLSASVGDRVTITCRASQSISSWLAWYQQKPGKAPKLLIYDASSLESGVPSRFSGSGSGTEFTLTISSLQPDDFATYYCQQYNSFITFGQGTRLEIK
B9: C68.327 (antibody, V domains shown)
VH: EVQLLESGGGLVQPGGSLRLSCAASGFTFGSYAMSWVRQAPGKGLEWVSAISGSGGSTYYADSVKGRFTISRDNSKNTLYLQMNSLRAEDTAVYNCAKDLWDGFHWFDSWGQGTLVTVSS
VL: DIQMTQSPSSVSASVGDRVTITCRASQGISSWLAWYQQKPGKAPNLLIYSASSLQSGVPSRFSGSGSGTDFTLTISSLQPEDFATYYCQQANSFPITFGQGTRLEIK
B10: C68.348 (antibody, V domains shown)
VH: QVQLQESGPRLVKSSGTLSLTCAVSGGSISSSKWWSWVRQPPGKGLEWIGEVYHGGSTNYNPSLKSRVTISVDKAKNQFSLKLSSVTAADSAVYYCASLDSAAVFDYWGQGTLVTVSS
VL: QSALTQPASVSGSPGQSITISCTGTSSDVGRFNYVSWYQQHPGKAPKLLIYDVSNRPSGVSNRFSGSKSGNTASLTISGLQAEDEADYYCNSYTSSSTLYVFGTGTKVTVL

Assays:
[1] = target: SARS-CoV-2 Omicron XBB recombinant spike protein (trimer) (SARS-CoV-2 Omicron XBB (entry: XBB.1), strain)
[2] = target: T1, SARS-CoV-2 RBD subunit (recombinant) (SARS-CoV-2 Wuhan-Hu-1, UniProt P0DTC2)
[3] = target: RsSHC014 RBD, yeast-displayed (Bat SARS-like coronavirus RsSHC014, UniProt U5WLK5); assay: flow cytometry on cells; details: one partner purified
[4] = target: T1, SARS-CoV-2 RBD subunit (recombinant); assay: ELISA; details: both partners purified
[5] = target: SARS-CoV-1 RBD, yeast-displayed (SARS-CoV-1, strain  (P59594 …, UniProt P59594)); assay: flow cytometry on cells; details: one partner purified

Binder | binding result [3] | binding result [4] | other results
B1 |  |  | binding result [1]: binds; binding result [2]: binds
B2 | binds | binds | 
B3 | binds |  | 
B4 | binds | binds | 
B5 | binds | binds | 
B6 |  | binds | binding result [5]: binds; fold lower binding than to SARS-CoV-1 RBD [3]: ~10 fold
B7 |  | binds | 
B8 |  | binds | 
B9 |  | binds | 
B10 |  | binds | 
